{"source": "patent US11858993B2", "about": "“Multi-specific antibodies with affinity for human A33 antigen and DOTA metal complex and uses thereof” (Memorial Sloan Kettering Cancer Center, priority 2015, dated 2024)", "test_system": "A33-positive SW1222 tumor", "assay": "Estimation of absorbed doses and therapeutic index for PRIT", "assay_type": "in vivo, mice", "conditions": "PRIT 0.25 mg huA33-C825, 62.5 μg CA, ^177Lu-DOTA-Bn; 2-120 h p.i. data", "text": "Exemplary estimates of absorbed doses for tumor and select normal tissue in female athymic mice carrying s.c. A33 positive-colorectal cancer tumors for PRIT including the optimum huA33-C825 and dextran-clearing agent doses are set forth in Table 6.", "data": [{"substance": "huA33-C825: bispecific antibody: humanized A33 IgG1 with murine C825 anti-DOTA-Bn scFv linked to the light chain C-terminus", "values": [{"measurement": "estimated absorbed dose, Blood", "result": 0.9, "unit": "cGy/MBq"}, {"measurement": "estimated absorbed dose, Bone", "result": 0.6, "unit": "cGy/MBq"}, {"measurement": "estimated absorbed dose, Heart", "result": 1.4, "unit": "cGy/MBq"}, {"measurement": "estimated absorbed dose, Kidneys", "result": 5.3, "unit": "cGy/MBq"}, {"measurement": "estimated absorbed dose, Large Intestine", "result": 0.8, "unit": "cGy/MBq"}, {"measurement": "estimated absorbed dose, Liver", "result": 6.3, "unit": "cGy/MBq"}, {"measurement": "estimated absorbed dose, Lung", "result": 1.8, "unit": "cGy/MBq"}, {"measurement": "estimated absorbed dose, Muscle", "result": 0.3, "unit": "cGy/MBq"}, {"measurement": "estimated absorbed dose, Small Intestine", "result": 0.5, "unit": "cGy/MBq"}, {"measurement": "estimated absorbed dose, Spleen", "result": 6.6, "unit": "cGy/MBq"}, {"measurement": "estimated absorbed dose, Stomach", "result": 0.6, "unit": "cGy/MBq"}, {"measurement": "estimated absorbed dose, Tumor", "result": 65.8, "unit": "cGy/MBq"}]}]}
